Measurements from US7118886 (HSC RESEARCH AND DEVELOPMENT LIMITED PARTNERSHIP, dated 2006).

Target: T1, GAL4 DNA binding domain fused to the five SH3 domains of Ese1 (amino acids 665-1213) (mouse, UniProt P04386 1-147 (Saccharomyces cerevisiae entry))
T1 construct: Yeast two-hybrid bait; also called pGBT9Ese1A3.3; SH3 domain bait of Ese1
Test: yeast two-hybrid screen with amino acids 665-1213 of Ese1 as bait

B1: Mouse YNK1 partial protein, GAL4 activation domain library clone (other, not shown: large carriers)
chain: LRAEGAKFRAVLDKAVQADGQVKERYQSHRDTIALLCKPEPELNAAIPSANPAKTMQGSEVVSVLKSLLSNLDEIKKERESLENDLKSVNFDMTSKFLTALAQDGVINEEALSVTELDRIYGGLTSKVQESLKKQEGLLKNIQVSHQEFSKMKQSNNEANLREEVLKNLATAYDNFVELVANLKEGTKFYNELTEILVRFQNKCSDIVFARKTERDELLKDLQQSIAREPSAPSIPPPAYQSSPAAGHAAAPPTPAPRTMPPAKPQPPARPPPPVLPANRVPPASAAAAPAGVGTASAAPPQTPGSAPPPQAQGPPYPTYPGYPGYCQMPMPMGYNPYAYGQYNMPYPPVYHQSPGQAPYPGPQQPTYPFPQPPQQSYYPQQ
  binding result: binds
